Measured values reported in the supplement of paper PMC10724198.
± gives the standard deviation of the averaged measurements.

Columns and labels:
Saccharomyces cerevisiae [1] = test: protein stability index of tFT-peptide fusion (C-terminal peptide) (PSI (0-1 scale)); higher = more stable (slower turnover)
Description: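 MPS profiling in S. cerevisiae of the tFT-X12 degron library: putative degron peptides plus stable controls, 12 aa, fused to the C-terminus of a sfGFP-mCherry timer. Cells are FACS-sorted into 8 mCherry/sfGFP bins and deep-sequenced. PSI runs from 0 (unstable) to 1 (stable). Backgrounds are wild type, das1Δ and doa10Δ at 30 °C, and wild type, das1Δ, cdc34-1 and cdc53-1 at 37 °C; 2-3 technical replicates each.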

Saccharomyces cerevisiae [2] = test: as above; settings: genetic background: wild type; temperature: 30 C
[3] = genetic background: cdc34-1, temperature: 37 C
[4] = genetic background: cdc53-1, temperature: 37 C
[5] = genetic background: das1 deletion, temperature: 30 C
[6] = genetic background: das1 deletion, temperature: 37 C
[7] = genetic background: doa10 deletion, temperature: 30 C
[8] = genetic background: wild type, temperature: 30 C
[9] = genetic background: wild type, temperature: 37 C
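Also: PSI is a weighted mean of sequencing reads over stability bins, variants kept only with over 10 reads, mCherry proximal and sfGFP distal, peptide attached via GGGS linker.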

Row | Sequence | protein stability index (Saccharomyces cerevisiae [1]; [3]) | protein stability index (Saccharomyces cerevisiae [1]; [4]) | protein stability index (Saccharomyces cerevisiae [1]; [5]) | protein stability index (Saccharomyces cerevisiae [1]; [6]) | protein stability index (Saccharomyces cerevisiae [1]; [7]) | protein stability index (Saccharomyces cerevisiae [1]; [8]) | protein stability index (Saccharomyces cerevisiae [1]; [9]) | protein stability index (Saccharomyces cerevisiae [2])
1 | GFGDKVPWRWVI | 0.606 ± 0.037 | 0.759 ± 0.022 | 0.657 ± 0.026 | 0.7816 ± 0.0045 | 0.124 ± 0.01 | 0.135 ± 0.0096 | 0.244 ± 0.0061 | 0.227 ± 0.045
2 | GFSVFSHSVWVR | 0.133 ± 0.044 | 0.0797 ± 0.0059 | 0.19 ± 0.032 | 0.271 ± 0.012 | 0.437 ± 0.016 | 0.194 ± 0.011 | 0.238 ± 0.013 | 0.313 ± 0.014
3 | GGICVVAYWRLA | 0.4654 ± 0.0011 | 0.518 ± 0.006 | 0.388 ± 0.034 | 0.564 ± 0.01 | 0.0948 ± 0.013 | 0.105 ± 0.021 | 0.173 ± 0.0065 | 0.198 ± 0.025
4 | GGMGLWCCVSVG | 0.665 ± 0.01 | 0.6779 ± 0.0056 | 0.528 ± 0.027 | 0.68341 ± 0.00034 | 0.513 ± 0.015 | 0.54 ± 0.015 | 0.651 ± 0.0083 | 0.527 ± 0.099
5 | GGRSLYAILCAV | 0.3216 ± 0.0018 | 0.393 ± 0.018 | 0.277 ± 0.028 | 0.4669 ± 0.0034 | 0.166 ± 0.021 | 0.197 ± 0.027 | 0.261 ± 0.011 | 0.321 ± 0.03
6 | GGSLWLVHLKTI | 0.604 ± 0.059 | 0.761 ± 0.038 | 0.633 ± 0.035 | 0.718 ± 0.025 | 0.118 ± 0.026 | 0.158 ± 0.011 | 0.275 ± 0.082 | 0.181 ± 0.044
7 | GGTFWDGLVLVH | 0.34 ± 0.023 | 0.418 ± 0.03 | 0.32 ± 0.028 | 0.484 ± 0.0082 | 0.274 ± 0.013 | 0.334 ± 0.035 | 0.45476 ± 9.2e-06 | 0.497 ± 0.097
8 | GGYGAGLRSPLF | 0.709 ± 0.04 | 0.755 ± 0.013 | 0.6761 ± 0.0025 | 0.741 ± 0.015 | 0.664 ± 0.014 | 0.661 ± 0.0099 | 0.729 ± 0.022 | 0.736 ± 0.044
9 | GINHLSLKLRLF | 0.647 ± 0.049 | 0.723 ± 0.017 | 0.631 ± 0.014 | 0.7423 ± 0.0037 | 0.109 ± 0.037 | 0.133 ± 0.0058 | 0.288 ± 0.01 | 0.262 ± 0.017
10 | GIVSGEGAVGVG | 0.46 ± 0.041 | 0.511 ± 0.025 | 0.468 ± 0.0097 | 0.5212 ± 0.0039 | 0.488 ± 0.022 | 0.466 ± 0.011 | 0.4989 ± 0.0019 | 0.509 ± 0.025
11 | GIVYFDQWISVS | 0.546 ± 0.031 | 0.538 ± 0.082 | 0.393 ± 0.022 | 0.571 ± 0.016 | 0.321 ± 0.0069 | 0.347 ± 0.02 | 0.544 ± 0.0084 | 0.461 ± 0.052
12 | GLACNPQLLRWT | 0.692 ± 0.014 | 0.7433 ± 0.0064 | 0.653 ± 0.018 | 0.7437 ± 0.0035 | 0.665 ± 0.035 | 0.654 ± 0.027 | 0.7175 ± 0.0069 | 0.756 ± 0.051
13 | GLFGFASPPPPS | 0.678 ± 0.042 | 0.7583 ± 0.0047 | 0.677 ± 0.016 | 0.749 ± 0.0081 | 0.6784 ± 0.0035 | 0.71 ± 0.021 | 0.722 ± 0.011 | 0.25 ± 0.032
14 | GLLAEPALLLLS | 0.661 ± 0.06 | 0.699 ± 0.027 | 0.618 ± 0.0073 | 0.724 ± 0.023 | 0.604 ± 0.037 | 0.62 ± 0.025 | 0.6881 ± 0.0066 | 0.499 ± 0.1
15 | GLLLLGIRLKWG | 0.139 ± 0.029 | 0.274 ± 0.037 | 0.208 ± 0.015 | 0.363 ± 0.026 | 0.157 ± 0.014 | 0.206 ± 0.013 | 0.328 ± 0.02 | 0.269 ± 0.011
16 | GLLLRLRNLFCM | 0.759 ± 0.087 | 0.8043 ± 0.0034 | 0.748 ± 0.019 | 0.851 ± 0.028 | 0.387 ± 0.026 | 0.391 ± 0.02 | 0.547 ± 0.05 | 0.522 ± 0.042
17 | GLVVVVRLQYSP | 0.309 ± 0.027 | 0.424 ± 0.02 | 0.329 ± 0.017 | 0.458 ± 0.011 | 0.27482 ± 1.4e-06 | 0.299 ± 0.016 | 0.4415 ± 0.0014 | 0.404 ± 0.027
18 | GLYFFVVRIFKV | 0.219 ± 0.021 | 0.345 ± 0.075 | 0.221 ± 0.039 | 0.437 ± 0.013 | 0.167 ± 0.0056 | 0.184 ± 0.022 | 0.336 ± 0.0096 | 0.27 ± 0.059
19 | GPGTWLFCFVRF | 0.504 ± 0.032 | 0.55 ± 0.0069 | 0.432 ± 0.029 | 0.602 ± 0.0065 | 0.475 ± 0.017 | 0.42 ± 0.022 | 0.612 ± 0.031 | 0.509 ± 0.027
20 | GQFFRCWRRRLC | 0.634 ± 0.044 | 0.709 ± 0.0072 | 0.649 ± 0.03 | 0.72 ± 0.022 | 0.145 ± 0.019 | 0.166 ± 0.028 | 0.443 ± 0.011 | 0.171 ± 0.081
21 | GRGLRVCWVWSG | 0.622 ± 0.054 | 0.7084 ± 0.0069 | 0.605 ± 0.019 | 0.7428 ± 0.0054 | 0.147 ± 0.013 | 0.18 ± 0.015 | 0.387 ± 0.013 | 0.286 ± 0.016
22 | GRHRRIRYVKTS | 0.633 ± 0.05 | 0.723 ± 0.0099 | 0.655 ± 0.014 | 0.744 ± 0.028 | 0.146 ± 0.024 | 0.183 ± 0.03 | 0.3527 ± 0.00097 | 0.261 ± 0.087
23 | GSLFANYNLKLF | 0.62289 ± 0.00034 | 0.724 ± 0.017 | 0.648 ± 0.06 | 0.771 ± 0.033 | 0.108 ± 0.017 | 0.106 ± 0.028 | 0.211 ± 0.013 | 0.163 ± 0.025
24 | GSVHLTKERHLV | 0.66 ± 0.028 | 0.74 ± 0.03 | 0.648 ± 0.032 | 0.7436 ± 0.0024 | 0.207 ± 0.0061 | 0.241 ± 0.036 | 0.499 ± 0.0063 | 0.319 ± 0.016
25 | GVAILFTFFRLL | 0.228 ± 0.086 | 0.526 ± 0.0023 | 0.456 ± 0.025 | 0.612 ± 0.02 | 0.0564 ± 0.016 | 0.0756 ± 0.0073 | 0.0737 ± 0.012 | 0.159 ± 0.022
26 | GVGHAWHYFCVC | 0.614 ± 0.044 | 0.7347 ± 0.0032 | 0.608 ± 0.018 | 0.74764 ± 0.00017 | 0.197 ± 0.017 | 0.247 ± 0.021 | 0.431 ± 0.0045 | 0.357 ± 0.025
27 | GVLIFLSFQPIA | 0.539 ± 0.021 | 0.617 ± 0.023 | 0.429 ± 0.03 | 0.599 ± 0.0088 | 0.3783 ± 0.0017 | 0.414 ± 0.013 | 0.556 ± 0.0093 | 0.431 ± 0.037
28 | GVLRMAPGRVMC | 0.599 ± 0.031 | 0.704 ± 0.0083 | 0.598 ± 0.024 | 0.702 ± 0.016 | 0.159 ± 0.02 | 0.175 ± 0.0027 | 0.345 ± 0.04 | 0.268 ± 0.032
29 | GVQFSVKWVKLG | 0.519 ± 0.022 | 0.7 ± 0.0093 | 0.616 ± 0.014 | 0.734 ± 0.0015 | 0.106 ± 0.011 | 0.109 ± 0.025 | 0.18 ± 0.0065 | 0.225 ± 0.019
30 | GVSLQLHVAVLI | 0.72 ± 0.39 |  | 0.483 ± 0.053 | 0.542 ± 0.056 | 0.275 ± 0.036 | 0.278 ± 0.0093 | 0.4284 ± 0.0018 | 0.44 ± 0.047
